Two molecules from patent US20200392203A1 (YEDA RESEARCH AND DEVELOPMENT, published 2020) can be followed below.

In general, Kd refers to the free concentration of one partner at which half of the binding sites on the other are occupied at equilibrium, for simple one-to-one binding. A lower Kd goes with tighter binding.

In assay [1] the target is native spike complex (glycoprotein complex, GPC) of Sabia virus (SABV) (Sabia virus (SABV)). Put plainly: cell-based or functional assay.
Assay [2] concerns the target native spike complex (glycoprotein complex, GPC) of Junin virus (JUNV) (Junin virus (JUNV)). The assay is described as follows: cell-based or functional assay.
In assay [3] the target is T1, native spike complex (glycoprotein complex, GPC) of Machupo virus (MACV) (Machupo virus (MACV), UniProt Q6IUF7 2-496).
T1 sequence: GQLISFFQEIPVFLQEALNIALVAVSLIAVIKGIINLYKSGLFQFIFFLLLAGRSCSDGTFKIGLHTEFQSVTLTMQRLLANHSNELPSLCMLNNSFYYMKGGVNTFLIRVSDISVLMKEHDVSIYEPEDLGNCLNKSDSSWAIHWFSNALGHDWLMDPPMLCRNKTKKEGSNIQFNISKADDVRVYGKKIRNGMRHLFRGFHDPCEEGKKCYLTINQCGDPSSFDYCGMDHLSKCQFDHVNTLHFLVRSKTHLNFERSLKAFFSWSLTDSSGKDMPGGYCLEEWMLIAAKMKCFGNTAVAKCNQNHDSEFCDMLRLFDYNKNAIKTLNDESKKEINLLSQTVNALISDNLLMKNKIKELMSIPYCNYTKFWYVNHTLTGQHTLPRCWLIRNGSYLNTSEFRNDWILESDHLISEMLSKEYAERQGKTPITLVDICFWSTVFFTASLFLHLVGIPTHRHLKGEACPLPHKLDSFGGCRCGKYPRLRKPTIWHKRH
Put plainly: cell-based or functional assay.

In assay [4] the target is GP1JUNV-Fc (GP1 domain of Junin virus fused at its C' terminus to an antibody Fc portion) (Junin virus (JUNV)). The assay is described as follows: SPR (Biacore T200), single cycle kinetics; […]; 1:1 model.
Assay [5] deals with GP1MACV-Fc (GP1 domain of Machupo virus fused at its C' terminus to an antibody Fc portion) (Machupo virus (MACV)) (UniProt Q6IUF7). The assay is described as above.
Assay [6] addresses GP1SBOV-Fc (GP1 domain of Sabia virus fused at its C' terminus to an antibody Fc portion) (Sabia virus (SABV)). The assay is described as follows: SPR (Biacore T200), single-cycle kinetics; […]; 1:1 model fit.

As to “Arenacept (sAD fused at its C'-terminus to an Fc portion of IgG1) (Fc fusion)”, the IC50 values (µg/ml), neutralization of pseudotyped virus was 3.5 µg/mL in assay [1] and 2.4 µg/mL in assay [2].

B1: soluble apical domain (sAD) of Neotoma albigula (White-throated woodrat) TfR1 (receptor)
chain: GSKIQVKCSAPNSVTITNASGGLYLVEYPEGYVAYSKATEVTGKLVHANFGTKKDFEDLDYAVNGSIVIVRAGKITIAEKVANAQSFNAIGVLIYKDRTKYPISRADEPLQGHSGLPSIPVQTISREAAEKLFQNMERDCPRSWNTDSSCKLELLQNRNVKLTVNNCLKE
Regarding B1, in assay [3], the “pseudovirus neutralisation, IC50 (read off the curve)” value is roughly 0.01 µM. The Kd stood at 1 µM in assay [4], 0.004 µM in assay [5] and 0.063 µM in assay [6].
